Assays:
[1] = biological target: papain (from papaya latex) (papaya) (UniProt P00784); assay: enzyme inhibition assay (Ki from substrate hydrolysis progress curves); papain activity in 50 mM phosphate buffer (pH 6.0), 40 µM Z-FR-AMC, 37°C, with or without NtCYS, reducing conditions
[2] = biological target: human liver cathepsin L (human); assay: enzyme inhibition assay (Ki from substrate hydrolysis progress curves); human cathepsin L activity in 400 mM sodium acetate buffer (pH 5.5), 40 µM Z-FR-AMC, 25°C, with or without NtCYS, reducing conditions
[3] = biological target: recombinant NtCP14 (N. tabacum); assay: enzyme inhibition assay (Ki(app) = [I0]/(V0/Vi-1)); apparent; recombinant NtCP14 activated in 100 mM sodium acetate (pH 4.0); hydrolysis of 40 µM Bz-FVR-AMC at 30°C, pH 6.0, reducing conditions, NtCYS varied
Chain of recombinant NtCP14 (N. tabacum) (main, as listed by the source): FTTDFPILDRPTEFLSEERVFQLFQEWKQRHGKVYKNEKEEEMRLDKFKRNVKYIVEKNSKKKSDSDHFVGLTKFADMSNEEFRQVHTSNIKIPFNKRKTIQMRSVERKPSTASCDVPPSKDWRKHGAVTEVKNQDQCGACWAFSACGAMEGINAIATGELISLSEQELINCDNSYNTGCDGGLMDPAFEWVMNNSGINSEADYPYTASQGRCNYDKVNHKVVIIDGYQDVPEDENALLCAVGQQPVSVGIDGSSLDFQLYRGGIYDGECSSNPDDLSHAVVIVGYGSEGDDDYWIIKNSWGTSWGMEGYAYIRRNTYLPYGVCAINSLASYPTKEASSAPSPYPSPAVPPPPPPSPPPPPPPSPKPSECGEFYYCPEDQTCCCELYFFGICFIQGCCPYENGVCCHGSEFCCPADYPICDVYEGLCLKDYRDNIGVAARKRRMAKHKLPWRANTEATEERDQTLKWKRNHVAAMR

Chain of papain (from papaya latex) (papaya) (P00784 134-345): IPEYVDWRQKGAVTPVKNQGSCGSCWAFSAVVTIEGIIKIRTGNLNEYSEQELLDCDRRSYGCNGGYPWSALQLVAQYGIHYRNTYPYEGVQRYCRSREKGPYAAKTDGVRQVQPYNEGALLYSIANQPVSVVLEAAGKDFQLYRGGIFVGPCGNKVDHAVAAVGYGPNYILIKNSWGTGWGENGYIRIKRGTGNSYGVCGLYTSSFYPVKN

Substance recombinant NtCYS (natural protein) has a Ki [1] of 64.5 nM, a Ki [2] of 0.39 nM and a Ki [3] of 740 nM.

— article PMC3769231
